Numbering of substitutions follows the chain as printed.
B1: DGL497 (bispecific antibody, V domains shown)
V domain 1: EVQLVESGGGLVQAGGSLRLSCAASGLTFRNYAMAWFRQAPGKEREFVAGITWGGGLTHYVDSVKGRFTISRDNGKNTVYLQMNSLKSEDTAVYYCAGKTQGSTWYHLTPDGYDYWGQGTQVTVEP
V domain 2: QVQLVESGGGLVQPGGSLRLSCAASGFTFSNYAMSWIRQGPERGFEWVSRINSGGGTTSYADSVKGRFTISRDNAKNTLYLQMNSLKPEDTAVYYCAKHSHPDYSSNYYRPGQGTQVTVEP
B2: DGL505 (bispecific antibody, V domains shown)
V domain 1: B1 V domain 1
V domain 2: QVQLVESGGGLVQLGDSLRLSCAASGRGFSSWTMAWFRQALGKRREFVAAITATGARTSSAESEGRFTISRDNAKNMVFLQMNSLKAEDTAVYYCAATGIASWDPGMADKYTYWGQGTQVTVEP
B3: DGL508 (bispecific antibody, V domains shown)
V domain 1: B1 V domain 1
V domain 2: QVQLVESGGGLVQAGGSLRLSCAASGRTFSRYIMGWFRQATGKEREFVAAISWSGLSTHYADSVQGRFTISRDNAENTVYLQMNSLKPEDTAVYYCAADRHWETRLLPREYDYWGQGTQVTVEP
B4: DGL453 (bispecific antibody, V domains shown)
V domain 1: QVQLQESGGALVQPGGSLRLSCVVSGFTSDYFAIGWFRQAPGKEREGVSCIGSSDGSTIYSDSVKGRFTISRDNAKNTVYLQMNSLKPEDTGVYYCALDRGRRTIIGYACYATMKYWGKGTPVTVEP
V domain 2: B1 V domain 2
B5: DGL506 (bispecific antibody, V domains shown)
V domain 1: B1 V domain 1
V domain 2: QVQLVESGGGLVQAGGSLKLSCAASGGTFSSYAMGWFRQAPGKEREFVAAIMRSGGTTVYVNSVKGRFTVSRDNAKNTVYLQMNSLKPEDAAVYYCAAGRPVSRTSYYTYTYPHDYDYWGQGTQVSVEP
B6: DGL594 (bispecific antibody, V domains shown)
V domain 1: EVQLVESGGGLVQAGGSLRLSCAASGSKFSFNAMGWYRQTPGKQRELVAIIINGDMINYADSVKGRFTISRDNAKNTMYLQMNSLKPEDTAVYYCKMTRYVYDYWGQGTQVTVEP
V domain 2: QVQLVESGGGLVQPGGSLRLSCAASGFTFSSKAMHWFRQAPGKGLEWVSSINSGGAITYYKDSVKGRFTVSRDNAKNILYLEMNSLKPEDTALYYCATDTDGRTRGQGTQVTVEP
B7: DGL496 (bispecific antibody, V domains shown)
V domain 1: B1 V domain 1
V domain 2: B6 V domain 2
B8: DGL587 (bispecific antibody, V domains shown)
V domain 1: QVQLVESGGGLVQAGGSLRLSCAASGRTFSSYVMGWFRQAPGQEREFVAAIMRNGIMTYYADSVKGRFTISRDNAKNTVYLQMNTLKPDDTAVYYCAAASRVGVSISQSSSYTSWGQGTQVTVEP
V domain 2: B6 V domain 2
B9: DGL603 (bispecific antibody, V domains shown)
V domain 1: EVQLVESGGGLVQPGGSLRLSCAASGFTFQNYAMSWLRKAPGEGLEWVSVINSGGGSTLYADSVKGRFTISRDNAKNTLYLQMHSLKSEDTAVYFCAKRRDDSTFGSLLYTHRGQGTQVTVEP
V domain 2: QVQLVESGGGLVQPGGSLRLSCAASGFTFSNYAMSWVRQAPGKGLEWVSAINSDGTSTSYADSVKGQFTISRDNAKNTLYLQMNSLKPEDTAVYYCTKWEGDTDSDYKFKDYWGQGTQVTVEP
B10: DGL461 (bispecific antibody, V domains shown)
V domain 1: B9 V domain 1
V domain 2: QVQLVESGGGLVQPGGSLRLSCAASGFTFEPYDMSWFRQAPGKGPEWVSAIDKGGGAGATYYADSVKGRFTISRDNAKKTLYLQMKSLKPEDTAVYYCAITAGPYSDSTPRVAYRGEGTQVTVEP
B11: DGL479 (bispecific antibody, V domains shown)
V domain 1: QVQLVESGGGLVQAGGSLRLSCAAPGRYAVGWFRQAPGKEYEFVAAITVSGGSKYYEDSVKGRFAISRDNAKNTVYLQMNSLKAEDTAVYYCAARTPKFGSGWYNRRGEYDYWGQGTQVTVEP
V domain 2: QVQLVESGGGLVQAGGSLRLSCAASGRTFSSYAMGWFRQAPGKEREFVSAISWSGLSTYYVESVQGRFTISRDNAKNTVYLQMNSLKPEDTAVYYCAASRIYTNYVARSYEYDDWGQGTQVTVEP
B12: DGL490 (bispecific antibody, V domains shown)
V domain 1: QVQLVESGGGLVQAGGSLRLSCAASARIFNSYAVAWFRQTPGKEREFVASISWSGGSTNYADSVKGRFTISRDNAKNTVFLQMNSLKPADTAVYYCAADRNYYPSVLGKYTYWGQGTQVTVEP
V domain 2: B11 V domain 2
B13: DGL413 (bispecific antibody, human IgG1, kappa)
heavy 1: not shown
heavy 2: QVQLVESGGGLVQAGGSLRLSCAASGRTFSRYRMGWFRQAPGKEREFVAAITKSGATTYDADSVKGRFTISRDNAKNTLYLQMNSLKPEDTAVYYCAASYHSNWWPKNADEYAYWGQGTQVTVEPKSSDKTHTCPPCPAPEAAGAPSVFLFPPKPKDTLMISRTPEVTCVVVDVSHEDPEVKFNWYVDGVEVHNAKTKPREEQYNSTYRVVSVLTVLHQDWLNGKEYKCKVSNKALPAPIEKTISKAKGQPREPQVCTLPPSRDELTKNQVSLSCAVKGFYPSDIAVEWESNGQPENNYKTTPPVLDSDGSFFLVSKLTVDKSRWQQGNVFSCSVMHEALHNRFTQKSLSLSPG
light: DIQMTQSPSSLSASVGDRVTITCRASQGIGNYLAWFQQRPGKAPKSLIYAASSLQSGVPSKFSGSGSGTDFTLTISSLQPADFAIYYCQQYNIYPYTFGPGTRLEIKRTVAAPSVFIFPPSDEQLKSGTASVVCLLNNFYPREAKVQWKVDNALQSGNSQESVTEQDSKDSTYSLSSTLTLSKADYEKHKVYACEVTHQGLSSPVTKSFNRGEC
B14: DGL397 (bispecific antibody, human IgG1, kappa)
heavy 1: not shown
heavy 2: QVQLVESGGGLVQAGGSLRLSCAASGRIFSAYRMGWFRQAPGKEREFVAGITWRGQTTYYAASVKGRFTISKDNAKKTVYLQMNSLKPEETAVYYCAVETNGLGRWDRPSEYDYWGQGTQVTVEPKSSDKTHTCPPCPAPEAAGAPSVFLFPPKPKDTLMISRTPEVTCVVVDVSHEDPEVKFNWYVDGVEVHNAKTKPREEQYNSTYRVVSVLTVLHQDWLNGKEYKCKVSNKALPAPIEKTISKAKGQPREPQVCTLPPSRDELTKNQVSLSCAVKGFYPSDIAVEWESNGQPENNYKTTPPVLDSDGSFFLVSKLTVDKSRWQQGNVFSCSVMHEALHNRFTQKSLSLSPG
light: DIQLTQSPSFLSASVGDRVTITCRASQGISSYLAWYQQQPGKPPKLLIYAASTLHSGVPSRFSGSGSGTEFTLTISSLQPEDFATYYCQQLNRYPYTCGQGTKLEIKRTVAAPSVFIFPPSDEQLKSGTASVVCLLNNFYPREAKVQWKVDNALQSGNSQESVTEQDSKDSTYSLSSTLTLSKADYEKHKVYACEVTHQGLSSPVTKSFNRGEC
B15: DGL405 (bispecific antibody, human IgG1, kappa)
heavy 1: not shown
heavy 2: B14 heavy 2
light: DIQLTQSPSFLSASVGYRVTITCRASQGISSYLAWYQQKPGKAPQLLIYAASTLQSGVPSRFSGRGSGTEFTLTISSLQPEDFATYYCQQLNGYPFTFGPGTKVNIKRTVAAPSVFIFPPSDEQLKSGTASVVCLLNNFYPREAKVQWKVDNALQSGNSQESVTEQDSKDSTYSLSSTLTLSKADYEKHKVYACEVTHQGLSSPVTKSFNRGEC
B16: DGL395 (bispecific antibody, human IgG1, kappa)
heavy 1: not shown
heavy 2: QVQLVESGGGLVQAGGSLRLSCAASGRTFSSYAMGWFRQAPGKEREFVSAISWSGLSTYYVESVQGRFTISRDNAKNTVYLQMNSLKPEDTAVYYCAASRIYTNYVARSYEYDDWGQGTQVTVEPKSSDKTHTCPPCPAPEAAGAPSVFLFPPKPKDTLMISRTPEVTCVVVDVSHEDPEVKFNWYVDGVEVHNAKTKPREEQYNSTYRVVSVLTVLHQDWLNGKEYKCKVSNKALPAPIEKTISKAKGQPREPQVCTLPPSRDELTKNQVSLSCAVKGFYPSDIAVEWESNGQPENNYKTTPPVLDSDGSFFLVSKLTVDKSRWQQGNVFSCSVMHEALHNRFTQKSLSLSPG
light: B15 light with Y17D, Y32F, Q45K, R65S, N105D
B17: DGL518 (bispecific antibody, V domains shown)
V domain 1: EVQLVESGGGLVQPGGSLRLFCAASRSIFNINIMGWYRQAPGKQREWLASITSGGSTFYADSVKDRFTISRDSVKNTVYLQMNSLKPEDTAAYYCNRYRSVPLNTVYPWGQGTLVTVEP
V domain 2: QVQLVESGGGLVRPGGSLRLSCAASGFTFSSNGMHWFRQAPGKGLEWVSSIGSGGTSIYYADSVKGRFTISRDNAKNTLYLQMNSLKSDDTAVYYCSKEVTGATRGQGTQVTVEP

Target: human IL-12 receptor (IL-12Rβ1 and IL-12Rβ2) on HEK-Blue IL-12 cells (human, UniProt P42701 24-662; Q99665 24-862)
Assay: cell-based or functional assay

Sequence of human IL-12 receptor (IL-12Rβ1 and IL-12Rβ2) on HEK-Blue IL-12 cells (Q99665 24-862, chain 2 of 2, other chains not shown): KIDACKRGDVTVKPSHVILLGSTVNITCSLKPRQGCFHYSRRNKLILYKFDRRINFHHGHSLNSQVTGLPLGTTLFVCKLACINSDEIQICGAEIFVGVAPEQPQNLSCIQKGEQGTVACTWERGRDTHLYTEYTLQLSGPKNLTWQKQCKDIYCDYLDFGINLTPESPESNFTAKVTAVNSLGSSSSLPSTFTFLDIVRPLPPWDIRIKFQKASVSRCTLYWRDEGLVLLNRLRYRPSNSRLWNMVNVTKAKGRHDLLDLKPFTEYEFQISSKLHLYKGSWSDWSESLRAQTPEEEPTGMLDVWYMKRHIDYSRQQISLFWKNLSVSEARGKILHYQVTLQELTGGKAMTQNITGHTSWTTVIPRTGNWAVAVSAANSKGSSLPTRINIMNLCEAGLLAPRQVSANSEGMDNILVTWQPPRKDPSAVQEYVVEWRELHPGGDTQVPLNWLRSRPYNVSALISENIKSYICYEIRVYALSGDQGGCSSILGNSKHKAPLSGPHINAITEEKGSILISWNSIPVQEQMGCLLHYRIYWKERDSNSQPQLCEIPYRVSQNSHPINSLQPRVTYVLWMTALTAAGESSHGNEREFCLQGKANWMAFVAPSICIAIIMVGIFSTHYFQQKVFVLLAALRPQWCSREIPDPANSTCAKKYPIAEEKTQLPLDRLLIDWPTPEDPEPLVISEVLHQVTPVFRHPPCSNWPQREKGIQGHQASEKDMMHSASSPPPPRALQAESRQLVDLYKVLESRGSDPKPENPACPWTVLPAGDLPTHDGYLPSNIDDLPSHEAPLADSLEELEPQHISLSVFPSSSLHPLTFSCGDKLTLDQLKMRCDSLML

Binder | Max Absorbance | EC50
B1 | 0.32 | 
B2 | 0.26 | 
B3 | 0.28 | 
B4 | 0.25 | 
B5 | 0.31 | 
B6 | 0.33 | 
B7 | 0.27 | 
B8 | 0.32 | 
B9 | 0.31 | 
B10 | 0.31 | 
B11 | 0.29 | 
B12 | 0.25 | 
B13 | 0.29 | 
B14 | 0.28 | 1.6e-11 M (implied)
B15 | 0.26 | 
B16 | 0.26 | 2.3e-10 M (implied)
B17 | 0.27 | 

Reference: US20250019450A1 (DIAGONAL THERAPEUTICS, published 2025)
